Here are results for 3 substances from article PMC9110858.

pKd: −log10 of the molar value.

Test [1] addresses trimeric IL-15Rα/IL-2Rβ/γc receptor on Kit225 cells (human (endogenous in Kit225)) (UniProt Q13261).
Test [2] deals with IL-2 (Homo sapiens) (UniProt P60568). Particulars: cited from earlier work.
The target of test [3] is IL-15 (Homo sapiens) (UniProt P40933). Particulars: cited from earlier work.

As a reminder, the pKd is the Kd on a negative log10 scale, so that one unit is a factor of ten.

Chain of UniProt P60568 (P60568 21-153): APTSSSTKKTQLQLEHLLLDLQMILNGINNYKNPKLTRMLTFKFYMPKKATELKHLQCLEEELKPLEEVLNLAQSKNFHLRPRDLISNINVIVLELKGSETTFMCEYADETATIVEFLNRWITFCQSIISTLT
Chain of UniProt P40933 (P40933 49-162): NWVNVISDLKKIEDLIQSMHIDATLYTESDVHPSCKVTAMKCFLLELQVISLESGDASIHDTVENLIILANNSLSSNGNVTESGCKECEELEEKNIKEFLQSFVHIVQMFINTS

On to “NANTIL-15 (New ANTagonist of IL-15), human IL-15 L45D-N65K-L69R linked to a human Fc (IgG1) (Fc fusion)”, for which, in test [1], the IC50 of inhibition of IL-15- or IL-15D8S-induced Kit225 cell proliferation by increasing NANTIL-15 is < 1 nM, the IC50 of inhibition of IL-15-induced Stat5 phosphorylation in Kit225 cells by increasing NANTIL-15 (blocks IL-15 acting through the trimeric IL-15Rα/IL-2Rβ/γc receptor) is 1 nM, the IC50 of inhibition of IL-15D8S-induced pStat5 signal in Kit225 cells by increasing NANTIL-15 (IL-15D8S signals only through the trimeric receptor) amounted to 1 nM and the plateau of inhibition of IL-15-induced Stat5 phosphorylation in Kit225 cells by increasing NANTIL-15 was determined as 60%.
Turning to IL-2Rα (from UniProt P01589), the negative-log Kd (pKd) in test [2] was 8.00.
For IL-15Rα (from UniProt Q13261), the negative logarithm of the Kd (pKd) in test [3] was 10.30.
